The values below come from publication PMC4474691, “Leukemia-Associated Mutations in Nucleophosmin Alter Recognition by CRM1: Molecular Basis of Aberrant Transport” (PLoS ONE, 2015).

The target in this experiment is CRM1^HA (high affinity mutant of CRM1) (UniProt Q6P5F9). Description: ITC; TFP-NES, YFP-NES or NES peptides at 35–180 μM titrated onto CRM1^HA at 2–14 μM; 20°C; 20 mM HEPES pH 7.4, 50 mM NaCl, 1 mM TCEP, 1 mM MgCl2; independent binding sites model.
For the substance YFP-PKI(NES) (domain or fragment), the equilibrium dissociation constant (Kd) came to 18 nM, the dH is -13.7 kcal/mol and the stoichiometry N was 1.01.

Consider “peptide EL (long NES motif of NPM mutant E, with Ile284)”, for which the Kd was found to be 31 nM, the dH is -19.8 kcal/mol and the stoichiometry N was found to be 0.51.

The substance TFP-mutE(NES) (domain or fragment) yielded a Kd of 1040 nM, a dH of -15.4 kcal/mol and a stoichiometry N of 0.8.

As to “peptide AL (long NES motif of NPM mutant A, with Ile284)”, the equilibrium dissociation constant (Kd) came out at 57 nM, the dH was -18.1 kcal/mol and the stoichiometry N amounted to 0.33.

TFP-mutA(NES) (domain or fragment) gave a Kd of 2380 nM, a dH of -14.5 kcal/mol and a stoichiometry N of 0.54.

“peptide ES (short NES motif of NPM mutant E)” returned a Kd of 76 nM, a dH of -20.8 kcal/mol and a stoichiometry N of 0.4.
